Experimental data taken from PMC4346194 (Structure (London, England : 1993), 2015).
Residue numbers refer to the chain shown, from its start.

Experiments:
Assay in all cases: pull-down
[1] = target: GST-tagged FL-importin α7 (human, UniProt O60684 1-536)
[2] = target: GST-tagged FL-importin α1 (mouse, UniProt P52293 1-529)
[3] = target: T1, GST-tagged FL-importin α3 (RRRR) (human, UniProt O00629 1-521, Q28R)
T1 sequence: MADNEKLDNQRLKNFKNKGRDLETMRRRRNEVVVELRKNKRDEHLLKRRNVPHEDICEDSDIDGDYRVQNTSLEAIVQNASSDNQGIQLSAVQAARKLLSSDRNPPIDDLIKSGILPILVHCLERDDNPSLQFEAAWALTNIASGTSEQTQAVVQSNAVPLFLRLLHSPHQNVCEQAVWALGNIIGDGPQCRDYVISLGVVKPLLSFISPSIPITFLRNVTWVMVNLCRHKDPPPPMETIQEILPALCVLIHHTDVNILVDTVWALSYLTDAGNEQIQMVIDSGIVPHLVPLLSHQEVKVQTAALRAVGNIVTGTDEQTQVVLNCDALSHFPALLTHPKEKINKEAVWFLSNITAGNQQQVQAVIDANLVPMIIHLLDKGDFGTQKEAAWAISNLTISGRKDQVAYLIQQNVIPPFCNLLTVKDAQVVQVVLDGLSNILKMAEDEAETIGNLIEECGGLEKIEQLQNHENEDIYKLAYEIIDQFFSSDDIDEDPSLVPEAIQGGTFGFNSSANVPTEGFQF

[4] = target: T2, GST-tagged FL-importin α3 (human, UniProt O00629 1-521)
T2 sequence: T1 sequence with R28Q

In the case of KRPAATKKAGQAKKKK [MBP-tagged nucleoplasmin NLS (NP-NLS, res. 155-170)], the “percent of importin α bound to cargo” value [1] is reported as 46%, the “percent of importin α bound to cargo” value [2] is reported as 25% and the “percent of importin α bound to cargo” value [3] is reported as 27%. For the same binder, the “percent of importin α bound to cargo” value [4] was 35%.
